Measured values published in patent US20250221923A1, “BOOSTING OSMOTIC BLOOD-ORGAN BARRIER OPENING FOR IMPROVED DELIVERY OF THERAPEUTICS TO ORGANS” (priority 2024, published 2025).

Tests used:
[1] = system: brain hemispheres and organs; assay: Ex vivo biodistribution of ^89Zr-BVDFO after OBBBO (Example 1); design: species or system mice; details: mouse
Protocol: On completion of PET/CT after infusion of ^89Zr-BVDFO, the mice were euthanized and left and right brain hemispheres, heart, lungs, liver, spleen, kidneys, and blood were harvested, weighed using Mettler Toledo […] Balance and radioactivity of each was measured using CRC®[…] Dose Calibrator and Well Counter, Mirion Technologies. To calculate the percentage injected dose per […] of tissue (% ID/g), first, the radioactivity present in the syringe after injection was measured and subtracted from initial measurement before injection to calculate the total injected dose. Then, the percentage of each organ's radioactivity measurement relative to the total injected dose was calculated and divided by the weight of the organ. The biodistribution data shown are mean % ID/g+SE.

brain hemispheres [2] = system: brain hemispheres; design: species or system mice; details: mouse
Protocol: A catheter was placed into the right internal carotid artery (ICA) in 14 male C57BL6 mice for intra-arterial (IA) injections. […] To confirm OBBBO, Gadolinium-enhanced T1 MRI was conducted, and safety was confirmed through subsequent serial MRI over 1-2 weeks.

head and neck region = system: head and neck region; design: species or system mice; details: mouse, in vivo
Protocol: Radiolabeled bevacizumab (Zr 89-bevacizumab) was administered via both IA and IV routes. […] Ex vivo measurements of drug biodistribution across various organs further corroborated these findings, quantifying radioactivity in specific tissues such as the skin, salivary glands, tongue, and jaw muscle (FIG. 7e). The method comprised pretreatment with composition comprising a hyperosmotic agent, stopping the pretreatment administration, and then administrating the radiolabeled bevacizumab. Without being bound by theory, it is believed that to enhance drug delivery, the pretreatment with the hyperosmotic agent would extract water from the tissue (local dehydration), followed by rapid rehydration upon cessation of the hyperosmotic infusion. This process was expected to improve the transition of the intra-arterially administered drug from the vascular compartment to the parenchymal tissues, thereby increasing drug accumulation in the targeted areas.

brain = details: mouse, in vivo
Excerpt: In experiment 2, IA injections of antibodies suspended in 0.9% NaCl were comparted to IA injections of antibodies suspended in serum. PET imaging and post-mortem antibody biodistribution were used as outcome measures.

brain hemispheres [3] = details: mouse, in vivo
Protocol: Then, monoclonal antibody (mAb) bevacizumab was conjugated to deferoxamine (DFO) and the conjugate was radiolabeled with zirconium-89 (^89Zr). OBBBO was performed using 25% mannitol or 4% NaCl in 25% mannitol, followed by intraarterial (IA) injection of the radiolabeled mAb and positron-emission tomography (PET) imaging to assess the distribution of the mAb. The percentages of injected dose per cubic centimeter of tissue (% ID/g) and standardized uptake values (SUV) were calculated for selected organs and regions.
Approximately 7.5 MBq (˜202 μCi) of ^89Zr-BVDFO reconstituted in 0.2 mL of saline was infused intraarterially at a speed of 0.15 mL/min and each animal was transferred to the PET/CT scanner. […] Regions of interest (ROIs), including right and left brain hemispheres, heart, lungs, and liver, were demarcated in the axial plane, and standardized uptake values (SUV) were calculated using the Fiji ImageJ PET/CT plugin.
Linear mixed modeling with restricted maximum likelihood (REML) method was performed using ‘Imer’ package, with % ID/g or SUVmean or SUVmax as a dependent variable, organs and BBBO type as fixed effects and mouse ID as a random effect. Estimated marginal means were calculated using ‘emmeans’ package for organ and BBBO interactions, and p-values for pairwise comparisons were extracted.

In the case of “^89Zr-BVDFO: monoclonal antibody bevacizumab (Avastin) conjugated to deferoxamine (DFO) and radiolabeled with zirconium-89”, the “uptake in the blood, lungs, spleen, liver, and kidneys” value [1] is reported as “high uptake”, the “ex vivo biodistribution, accumulation in the ipsilateral hemisphere” value (brain hemispheres [2]) is reported as “confirmed by ex vivo biodistribution” and the “standardized uptake values (SUV), accumulation in the ipsilateral hemisphere” value (brain hemispheres [2]; in vivo) is reported as “substantial accumulation”. For the same substance, the “antibody uptake in the head and neck region, IA compared to IV” value (head and neck region) was “significantly higher”, the “CNS penetration, antibodies suspended in 0.9% NaCl vs suspended in serum” value (brain) was “much higher” and the “antibody penetration to the brain, IA vs IV” value (brain; iv) was “much higher”. For the same substance, the “accumulation of radioactivity in the ipsilateral hemisphere” value (brain hemispheres [3]) was “substantial accumulation”.
